Biological target: T1, ScErg28-Cub (S. cerevisiae, UniProt P40030 1-148)
T1 construct: Erg28 of S. cerevisiae, scaffold of the ergosome; Cub vector pCYC-BAIT-Cub-PLV; source: split-ubiquitin two-hybrid fusion, S. cerevisiae L40
T1 sequence: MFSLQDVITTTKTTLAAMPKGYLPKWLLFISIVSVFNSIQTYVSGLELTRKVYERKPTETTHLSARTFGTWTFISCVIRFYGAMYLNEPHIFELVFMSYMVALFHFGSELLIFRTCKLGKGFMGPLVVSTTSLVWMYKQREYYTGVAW
Assay: two-hybrid; split-ubiquitin two-hybrid in S. cerevisiae L40; Cub-PLV and NubG fusions; growth on Trp- Leu- His- plates after 48 hr and >3-fold β-galactosidase activity over the negative control
Settings: partners not purified

B1: ScErg27-NubG (natural protein)
chain: MNRKVAIVTGTNSNLGLNIVFRLIETEDTNVRLTIVVTSRTLPRVQEVINQIKDFYNKSGRVEDLEIDFDYLLVDFTNMVSVLNAYYDINKKYRAINYLFVNAAQGIFDGIDWIGAVKEVFTNPLEAVTNPTYKIQLVGVKSKDDMGLIFQANVFGPYYFISKILPQLTRGKAYIVWISSIMSDPKYLSLNDIELLKTNASYEGSKRLVDLLHLATYKDLKKLGINQYVVQPGIFTSHSFSEYLNFFTYFGMLCLFYLARLLGSPWHNIDGYKAANAPVYVTRLANPNFEKQDVKYGSATSRDGMPYIKTQEIDPTGMSDVFAYIQKKKLEWDEKLKDQIVETRTPI
notes: Erg27 of S. cerevisiae; Nub vector pADH-PREY-2HA-NubG; source: split-ubiquitin two-hybrid fusion, S. cerevisiae L40
fold increase in β-galactosidase activity over the negative interaction control: 15 fold

Reference: PMC7367482, “An Erg11 lanosterol 14-α-demethylase-Arv1 complex is required for Candida albicans virulence” (PLoS ONE, 2020)
